The values below come from US20240025978A1 (BIOVERATIV USA, published 2024).

The assay addresses T1, activated human complement C1s (Homo sapiens, UniProt P09871 16-688).
T1 sequence: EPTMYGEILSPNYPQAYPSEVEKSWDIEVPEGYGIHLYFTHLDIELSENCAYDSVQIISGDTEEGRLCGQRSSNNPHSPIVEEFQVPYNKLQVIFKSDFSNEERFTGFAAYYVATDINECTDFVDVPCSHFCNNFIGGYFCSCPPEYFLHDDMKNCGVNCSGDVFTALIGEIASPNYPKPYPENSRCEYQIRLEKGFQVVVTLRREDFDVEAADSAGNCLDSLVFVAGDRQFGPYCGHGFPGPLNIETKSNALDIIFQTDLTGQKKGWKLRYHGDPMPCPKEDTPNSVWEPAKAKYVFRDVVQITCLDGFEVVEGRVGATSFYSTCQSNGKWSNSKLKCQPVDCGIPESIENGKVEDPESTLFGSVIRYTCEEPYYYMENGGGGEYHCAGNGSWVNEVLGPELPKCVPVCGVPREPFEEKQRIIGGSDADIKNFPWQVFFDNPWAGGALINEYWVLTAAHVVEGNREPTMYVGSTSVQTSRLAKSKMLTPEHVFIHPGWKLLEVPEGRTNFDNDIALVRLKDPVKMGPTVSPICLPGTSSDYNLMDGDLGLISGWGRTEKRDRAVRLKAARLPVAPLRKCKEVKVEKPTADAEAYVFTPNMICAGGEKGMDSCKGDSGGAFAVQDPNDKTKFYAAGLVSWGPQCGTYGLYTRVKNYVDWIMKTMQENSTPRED
The assay can be described thus: cell-based or functional assay.

B1: SAR445088 (antibody, human IgG4 S228P, kappa, V domains shown)
VH: QVQLVQSGAEVKKPGASVKLSCTASGFNIKDDYIHWVKQAPGQGLEWIGRIDPADGHTKYAPKFQVKVTITADTSTSTAYLELSSLRSEDTAVYYCARYGYGREVFDYWGQGTTVTVSS
VL: DIVLTQSPDSLAVSLGERATISCKASQSVDYDGDSYMNWYQQKPGQPPKILIYDASNLESGIPARFSGSGSGTDFTLTISSLEPEDFAIYYCQQSNEDPWTFGGGTKVEIKR
Take B1: the “CH50 (50% hemolytic complement activity, liposome-based assay), population PK/PD model, typical IC50” value turned out to be 16.6 µg/mL and the “percent CP (Wieslab classical pathway assay), population PK/PD model, typical IC50” value was determined as 96.4 µg/mL.
